Test results taken from article PMC3470408.

Tested on: CC(C)=CCOP(=O)(O)OP(=O)(O)O
Experiment: purified protein
Settings: pH 7.0; 37.0 °C

## Rv0562 (Mycobacterium tuberculosis H37Rv)
  Km: 5 ± 2 µM
